Measured values as given in patent US20130133089A1 (MEDICAL RESEARCH INFRASTRUCTURE AND HEALTH SERVICES FUND OF …, published 2013).
Changes are numbered by the printed parent chain. In names and notes the source's numbering stands.

Experiments:
[1] = molecular target: T1, Recombinant human leptin binding domain (hLBD) (human, UniProt P48357 428-635, biotinylated with Sulfo-NHS-LC-Biotin in the yeast display assays; not labelled when immobilized in the plate binding assay); test: competitive plate binding assay: immobilized hLBD, biotinylated mouse leptin as ligand, mutein as competitor
T1 construct: CRH2 sub-domain of the leptin receptor; Prepared in the applicants' laboratory; also called soluble human leptin receptor; CHR2
T1 sequence (looked up): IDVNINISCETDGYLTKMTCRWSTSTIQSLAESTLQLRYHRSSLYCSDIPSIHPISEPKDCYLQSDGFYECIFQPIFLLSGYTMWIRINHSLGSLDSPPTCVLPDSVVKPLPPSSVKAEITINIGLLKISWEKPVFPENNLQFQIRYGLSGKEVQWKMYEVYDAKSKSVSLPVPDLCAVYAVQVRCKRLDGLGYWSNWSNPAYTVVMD
Protocol: Biotinylated mouse leptin served as the ligand in all competitive experiments and the respective mouse leptin or mouse or human leptin antagonist muteins as competitors. The hLBD was used as the receptor source. Polystyrene 96-well microtiter plates were coated overnight at 4° C. with 100 μl of 40 μM hLBD in PBS pH 7.4. Wells were then washed one time with PBST (PBS containing 0.05 Tween 20) and blocked with PBS containing 3% skim milk for two hours in room temperature. All further incubations were carried out at room temperature. Wells were washed one time with PBST and incubated with different concentrations of un-labeled leptins (50 μl/well) for 30 min and then 50 μl of 62.5 μM of biotinylated mouse leptin were added to each well for another two hours. Then the wells were washed three times with PBST and incubated with 1:30,000 streptavidin-HRP in PBS containing 1 Tween 20 for one hour. Subsequently the wells were washed three times with PBST and the reaction was quantified in 450 nm by microplate reader ELISA Plate Reader ELx808—Bio-Tek Instrument Inc. (Winooski, Vt., USA) using TMB according to manufacturer's instructions.

[2] = molecular target: long form of human leptin receptor (hLEPR) on BAF/3 or H-49 (HEK-293) cells (human), P48357; test: cell-based or functional assay
Chain of long form of human leptin receptor (hLEPR) on BAF/3 or H-49 (HEK-293) cells (human), P48357 (P48357 22-1165): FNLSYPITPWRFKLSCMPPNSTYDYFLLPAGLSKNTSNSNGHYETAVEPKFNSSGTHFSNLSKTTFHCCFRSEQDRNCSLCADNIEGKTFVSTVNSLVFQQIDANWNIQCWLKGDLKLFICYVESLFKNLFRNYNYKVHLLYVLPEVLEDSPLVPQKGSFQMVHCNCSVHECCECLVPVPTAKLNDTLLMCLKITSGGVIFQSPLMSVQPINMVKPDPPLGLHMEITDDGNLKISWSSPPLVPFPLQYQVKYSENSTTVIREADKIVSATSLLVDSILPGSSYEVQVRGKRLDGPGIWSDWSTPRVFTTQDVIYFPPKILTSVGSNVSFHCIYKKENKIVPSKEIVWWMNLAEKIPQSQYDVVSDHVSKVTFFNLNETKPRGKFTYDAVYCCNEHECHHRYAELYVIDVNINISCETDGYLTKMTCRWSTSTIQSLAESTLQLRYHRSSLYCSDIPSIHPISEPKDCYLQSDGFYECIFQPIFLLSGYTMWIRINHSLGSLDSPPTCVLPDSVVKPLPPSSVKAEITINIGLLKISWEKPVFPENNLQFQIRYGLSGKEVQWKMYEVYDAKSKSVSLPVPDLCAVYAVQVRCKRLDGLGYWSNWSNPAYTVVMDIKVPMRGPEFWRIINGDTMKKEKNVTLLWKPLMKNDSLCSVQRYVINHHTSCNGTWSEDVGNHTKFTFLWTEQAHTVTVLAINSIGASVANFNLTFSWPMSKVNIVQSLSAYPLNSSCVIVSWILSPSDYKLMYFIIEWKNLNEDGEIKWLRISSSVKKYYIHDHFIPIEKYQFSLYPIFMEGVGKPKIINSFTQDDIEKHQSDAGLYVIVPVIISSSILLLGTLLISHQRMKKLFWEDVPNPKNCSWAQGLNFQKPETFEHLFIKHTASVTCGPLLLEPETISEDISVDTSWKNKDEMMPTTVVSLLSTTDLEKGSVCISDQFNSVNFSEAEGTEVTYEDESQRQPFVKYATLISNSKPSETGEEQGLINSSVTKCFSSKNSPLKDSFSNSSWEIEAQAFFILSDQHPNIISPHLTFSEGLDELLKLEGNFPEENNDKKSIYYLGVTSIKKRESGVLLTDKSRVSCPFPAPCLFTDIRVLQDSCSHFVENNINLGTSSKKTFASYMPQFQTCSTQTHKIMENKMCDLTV

B1: mouse leptin antagonist H12 (S97Y + L39A/D40A/F41A) (ligand)
chain: AVPIQKVQDDTKTLIKTIVTRINDISHTQSVSAKQRVTGAAAIPGLHPILSLSKMDQTLAVYQQVLTSLPSQNVLQIANDLENLRDLLHLLAFSKSCYLPQTSGLQKPESLDGVLEASLYSTEVVALSRLQGSLQDILQQLDVSPEC
notes: mature; also called H12 (antagonist)
B1 was tested, and the “fold increase in affinity as compared to the WT mouse leptin antagonist” value [1] was 1.4 fold.

B2: mouse leptin antagonist H22 (T12I + L39A/D40A/F41A), P41160 22-167 (ligand)
chain: B1 chain with T13I, Y98S
With B2 the BAF/3 bioassay: fold increase in bioactivity as compared to the WT mouse leptin antagonist [2] was 2.4 fold and the Luciferase bioassay: fold increase in bioactivity as compared to the WT mouse leptin antagonist [2] was 3.3 fold.

B3: pegylated mouse leptin antagonist (PEG-MLA), P41160 22-167 (ligand)
chain: B1 chain with Y98S
modifications: here or on the partner: pegylated (method previously described for MLA; 20 kDa PEG, site not restated here)
For B3, the biological activity: fold reduction by pegylation of MLA [2] was 7 fold.

B4: recombinant mouse leptin mutein H12 (S97Y), agonist, P41160 22-167 (ligand)
chain: B1 chain with A40L, A41D, A42F
Work on B4 yielded a BAF/3 bioassay: fold increase in bioactivity as compared to the WT mouse leptin [2] of 0.9 fold and a Luciferase bioassay: fold increase in bioactivity as compared to the WT mouse leptin [2] of 0.7 fold.

B5: mouse leptin antagonist H12 (S97Y + L39A/D40A/F41A), P41160 22-167 (ligand)
chain: B1 chain
B5 was tested, and the BAF/3 bioassay: fold increase in bioactivity as compared to the WT mouse leptin antagonist [2] was 0.8 fold and the Luciferase bioassay: fold increase in bioactivity as compared to the WT mouse leptin antagonist [2] was 0.1 fold.

B6: mouse leptin antagonist H16 (D23G, G112S + L39A/D40A/F41A), P41160 22-167 (ligand)
chain: B1 chain with D24G, Y98S, G113S
Work on B6 yielded a BAF/3 bioassay: fold increase in bioactivity as compared to the WT mouse leptin antagonist [2] of 3.3 fold and a Luciferase bioassay: fold increase in bioactivity as compared to the WT mouse leptin antagonist [2] of 3.3 fold.

B7: mouse leptin antagonist H19 (D23G, T37A, G44D + L39A/D40A/F41A), P41160 22-167 (ligand)
chain: B1 chain with D24G, T38A, G45D, Y98S
For B7, the BAF/3 bioassay: fold increase in bioactivity as compared to the WT mouse leptin antagonist [2] was 3.5 fold and the Luciferase bioassay: fold increase in bioactivity as compared to the WT mouse leptin antagonist [2] was 2.9 fold.

B8: mouse leptin antagonist H15 (D23G, L68M, S97F, S132Y + L39A/D40A/F41A), P41160 22-167 (ligand)
chain: B1 chain with D24G, L69M, Y98F, S133Y
In the case of B8, the BAF/3 bioassay: fold increase in bioactivity as compared to the WT mouse leptin antagonist [2] is reported as 4.8 fold and the Luciferase bioassay: fold increase in bioactivity as compared to the WT mouse leptin antagonist [2] is reported as 4.2 fold.

B9: recombinant mouse leptin mutein H15 (D23G, L68M, S97F, S132Y), agonist, P41160 22-167 (ligand)
chain: B1 chain with D24G, A40L, A41D, A42F, L69M, Y98F, S133Y
With B9 the BAF/3 bioassay: fold increase in bioactivity as compared to the WT mouse leptin [2] was 0.5 fold and the Luciferase bioassay: fold increase in bioactivity as compared to the WT mouse leptin [2] was 0.8 fold.

B10: recombinant mouse leptin mutein H22 (T12I), agonist, P41160 22-167 (ligand)
chain: B1 chain with T13I, A40L, A41D, A42F, Y98S
Work on B10 yielded a BAF/3 bioassay: fold increase in bioactivity as compared to the WT mouse leptin [2] of 0.8 fold and a Luciferase bioassay: fold increase in bioactivity as compared to the WT mouse leptin [2] of 0.7 fold.

B11: recombinant mouse leptin mutein H15 (D23G, L68M, S97F, S132Y), agonist (ligand)
chain: B1 chain with D24G, A40L, A41D, A42F, L69M, Y98F, S133Y
notes: mature
B11 was tested, and the “fold increase in affinity as compared to the WT mouse leptin” value [1] was 9.7 fold.

B12: mouse leptin antagonist H19 (D23G, T37A, G44D + L39A/D40A/F41A) (ligand)
chain: B1 chain with D24G, T38A, G45D, Y98S
notes: mature; also called H19 (antagonist)
B12 was tested, and the “fold increase in affinity as compared to the WT mouse leptin antagonist” value [1] was 6.1 fold.

B13: mouse leptin antagonist H22 (T12I + L39A/D40A/F41A) (ligand)
chain: B1 chain with T13I, Y98S
notes: mature; also called H22 (antagonist)
For B13, the “fold increase in affinity as compared to the WT mouse leptin antagonist” value [1] was 11.2 fold.

B14: recombinant mouse leptin mutein H12 (S97Y), agonist (ligand)
chain: B1 chain with A40L, A41D, A42F
notes: mature
In the case of B14, the “fold increase in affinity as compared to the WT mouse leptin” value [1] is reported as 1.5 fold.

B15: mouse leptin antagonist H15 (D23G, L68M, S97F, S132Y + L39A/D40A/F41A) (ligand)
chain: B1 chain with D24G, L69M, Y98F, S133Y
notes: mature; also called H15 (antagonist)
B15 was tested, and the “fold increase in affinity as compared to the WT mouse leptin antagonist” value [1] was 12.4 fold.

B16: recombinant mouse leptin mutein H22 (T12I), agonist (ligand)
chain: B1 chain with T13I, A40L, A41D, A42F, Y98S
notes: mature
B16 was tested, and the “fold increase in affinity as compared to the WT mouse leptin” value [1] was 11.7 fold.
